# Laboratory results reported in patent publication US20250163176A1, “MONOCLONAL ANTIBODY AGAINST TROP2 AND USE THEREOF” (INSTITUTE OF MEDICAL BIOTECHNOLOGY, CHINESE ACADEMY OF …, priority 2022, published 2025).
# T1: Trop2 antigen (Homo sapiens, UniProt P09758)
# T1 sequence (P09758 27-323): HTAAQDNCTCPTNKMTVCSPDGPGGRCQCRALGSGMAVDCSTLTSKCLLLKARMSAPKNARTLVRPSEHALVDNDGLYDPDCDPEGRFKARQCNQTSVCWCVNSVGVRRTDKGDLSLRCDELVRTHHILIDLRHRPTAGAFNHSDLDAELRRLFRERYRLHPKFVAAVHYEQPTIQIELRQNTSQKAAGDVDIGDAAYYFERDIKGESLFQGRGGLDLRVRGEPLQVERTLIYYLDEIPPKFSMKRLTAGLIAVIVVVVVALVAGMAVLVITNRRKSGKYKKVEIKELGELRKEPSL
# T2: Trop2 (Homo sapiens, UniProt P09758)
# T2 sequence (P09758 27-323): T1 sequence (P09758 27-323)
# T3: Trop2 antigen (human, UniProt P09758 27-274, limits assumed)
# T3 construct: also called human trophoblast cell surface antigen 2; tumor-associated calcium signal transducer 2
# T3 sequence (looked up): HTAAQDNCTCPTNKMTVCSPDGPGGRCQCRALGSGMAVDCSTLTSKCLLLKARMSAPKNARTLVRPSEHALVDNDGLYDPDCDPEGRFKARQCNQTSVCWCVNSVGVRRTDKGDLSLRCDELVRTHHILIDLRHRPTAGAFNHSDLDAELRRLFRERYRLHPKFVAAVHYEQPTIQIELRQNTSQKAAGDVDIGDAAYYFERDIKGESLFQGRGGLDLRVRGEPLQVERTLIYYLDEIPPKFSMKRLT
# B1: antibody: mouse-derived anti-Trop2 monoclonal antibody (IgG1, Kappa) from hybridoma Y1636-1, CGMCC No. 18167; VL SEQ ID NO:1, VH SEQ ID NO:9 (antibody, V domains shown)
# VH: MEWSGVFIFLLSVTADVHSQVQLQQSGAELVRPGTSVKISCKASGYTFTNYWLGWVKQRPGHGLEWIGNIFPGGGYTNYNEKFKGKAILTADTSSSTAYMQLSSLTSEDSGVYFCAREGVMDYWGQGTTLTVSS
# VL: MVSTPQFLVFLLFWIPASRGDILLTQSPAILSVSPGERVSFSCRASQNIGTSIHWYQQRTNGFPRLLIKYASESISGIPSRFSGSGSGTDFTLSINSVESEDIADYYCQQSYSWPFTFGSGTKLEIK
# modifications: mouse IgG1/kappa constant regions, no entry
# B2: anti-Trop2 monoclonal antibody IMB1636 (antibody, V domains shown)
# VH: QVQLQQSGAELVRPGTSVKISCKASGYTFTNYWLGWVKQRPGHGLEWIGNIFPGGGYTNYNEKFKGKAILTADTSSSTAYMQLSSLTSEDSGVYFCAREGVMDYWGQGTTLTVSS
# VL: DILLTQSPAILSVSPGERVSFSCRASQNIGTSIHWYQQRTNGFPRLLIKYASESISGIPSRFSGSGSGTDFTLSINSVESEDIADYYCQQSYSWPFTFGSGTKLEIK
# notes: also called mouse-derived anti-Trop2 monoclonal antibody; anti-Trop2 antibody
# How the values were obtained:
# [1] = tested on: recurrent and refractory triple-negative breast cancer; conditions: patients; cited from earlier work
# [2] = tested on: small cell lung cancer; conditions: patients, phase II; cited from earlier work
# [3] = target: T1, Trop2 antigen; assay: antibody-antigen affinity analysis by Biacore method; format: binding; conditions: antibody coupled to CM5 chip, FIG. 6
# Method: Amino of an anti-Trop2 antibody was coupled to a CM5 chip, with pH of 5.0, an antibody concentration of 10 μg/mL, sample injection time of 60 s, and flow rate of 10 μL/min, and a coupling amount of 378.6 RU. Trop2 antigen at different concentrations (0, 0.814, 1.628, 3.256, 6.512, 13.025, 26.05, and 52.1 μg/mL) was taken for flowing over the chip with a sample injection time of 60 s, flow rate of 30 μL/min, dissociation time of 600 s, and regeneration conditions of glycine-HCl, and pH 1.5 (100 s, 30 μL/min) to obtain Biacore affinity graphs and affinity constant. (FIG. 6)
# [4] = tested on: human lung squamous cell carcinoma tumor tissues; assay: human tumor tissue chip detection; format: binding; conditions: FIG. 12
# Method: All tumor tissue chips used in this experiment were purchased from Shanghai Outdo Biotech Co., Ltd. The main experimental steps included: slide baking, dewaxing, antigen retrieval, endogenous peroxidase blocking, primary antibody incubation, secondary antibody incubation, diaminobenzidine (DAB) developing, hematoxylin counterstaining, and slide blocking. (FIG. 12)
# [5] = tested on: BxPC-3; assay: binding ability of antibody to tumor cells by immunofluorescence; format: cell-based; conditions: BxPC-3 highly expressing Trop2, immunofluorescence, FIG. 8
# Method: NIH3T3, MDA-MB-231, and BXPC-3 cells were cultured on cell slides at 1×10^4 cells/well and incubated at 37° C. for 24 h. The cells after incubation were fixed with 4% paraformaldehyde for 30 min, followed by washing three times with pre-cooled PBS at 4° C., blocking with 1% BSA in PBST solution at 4° C. overnight, and adding with purified anti-Trop2 antibody at a concentration of 10 μg/mL and incubating at 4° C. overnight. An SP2/0 ascites served as a negative control. The cells were washed three times with PBST pre-cooled to 4° C., added with rhodamine-labeled goat anti-mouse IgG secondary antibody diluted 1:200 at room temperature for incubation for 1.5 h in the dark. The cells after incubation were washed three times with PBST, and one drop of 4′,6-diamidino-2-phenylindole (DAPI) (1 mg/mL) was added to each well for incubation for 10 min. Observations and photographs were taken under a fluorescence microscope. (FIG. 8)
# [6] = tested on: Trop2-positive cells HCC-827; assay: confocal immunofluorescence, endocytosis of antibody; format: cell-based, human; conditions: HCC-827, confocal microscopy, FIG. 9
# Method: HCC-827 cells in logarithmic growth phase were prepared into a single-cell suspension, after cell counting, which was inoculated into a cell slide at 1×10^4 cells/well/200 μL, and then incubated at 37° C. for 24 h. An anti-Trop2 antibody at 10 μg/mL, 200 μL/well, was added. For the binding of antibody to the cell surface, cells were incubated after being added with antibody IMB1636 at 4° C. for 30 min. The cells were collected for washing three times with PBS, fixed with 4% paraformaldehyde (200 μL/well) for 15 min, washed three times with PBST, permeabilized with 0.2% Triton-X100 (200 μL+100 mL PBS) for 10 min, washed three times with PBST, blocked with 5% BSA at 37° C. for 30 min. The cells were added with secondary antibody (goat anti-mouse AF488) at 3 μL+1.5 mL PBST, 200 μL/well, and incubated at 37° C. for 30 min, washed five times with PBST, stained with DAPI for 15 min, washed three times with PBST, and dropwise added with an anti-fluorescence quenching agent for observation under a confocal microscope.
# For the case of endocytosis of antibody, cells were added with antibody IMB1636 and incubated at 37° C. for 2 h. […] Other steps were the same as above. Co-localization of antibody IMB1636 with lysosomes was observed. (FIG. 9)
# [7] = tested on: tumor tissues; format: in vivo, mice
# Method: BXPC-3, MDA-MB-231, and NIH3T3 cells were inoculated in the axilla of mice at 6×10^4 cells/mouse. When the tumor volume reached […], an anti-Trop2 antibody was labeled using a Dylight 680 antibody kit. The anti-Trop2 antibody was injected via tail vein into mice at 20 mg/kg. In vivo imaging was performed at 30 min, 1 h, 2 h, 3 h, 4 h, 6 h, 8 h, 10 h, 12 h, 14 h, 24 h, 30 h, 36 h, 48 h, 60 h, 72 h, 84 h, 96 h, 108 h, 120 h, 132 h, 144 h, 156 h, 168 h, 192 h, 216 h, 240 h, and 264 h. (FIG. 11)
# [8] = target: T1, Trop2 antigen; assay: antibody-antigen affinity constant by ELISA; format: binding; conditions: indirect ELISA, FIG. 7
# Method: (§1) A Trop2 antigen was diluted to three dilutions (0.1 μg/mL, 0.2 μg/mL, and 0.4 μg/mL) and coated onto ELISA plates. An anti-Trop2 monoclonal antibody was diluted to concentrations of (1, 0.2, 0.04, 0.008, 0.0016, 0.00032, 0.000064, and 0.0000128 μg/mL). An antigen-antibody reaction curve was determined using an indirect ELISA. […] The unit of Ka is M^−1. In this formula, [Ab] represents the antibody concentration corresponding to A=½Amax when the antigen concentration is [Ag]; [Ab]t represents the antibody concentration corresponding to A=½Amax when the antigen concentration is [Ag]t; [Ag] and [Ag]t represent the antigen concentrations; and n is the dilution factor between [Ag] and [Ag]t. (FIG. 7)
# [9] = target: T2, Trop2; assay: antibody titer detected by indirect ELISA; format: binding; conditions: FIG. 2
# Text: Hybridoma cell lines for detection was continuously cultured before and after cryopreservation. The antibody titer in the cell supernatant was detected by indirect ELISA.
# [10] = tested on: tumor cell membrane that highly expresses Trop2 antigen; assay: binding ability of antibody to tumor cells by flow cytometry; format: cell-based; conditions: FIG. 10
# Method: BXPC-3, MDA-MB-231, and NIH 3T3 cells were separately collected at 5×10^6 cells/EP tube, washed with 100 μL of PBS containing 2% FBS pre-cooled to 4° C., and resuspended in 100 μL of PBS containing 2% FBS. Anti-Trop2 antibody at concentrations of 3, 1, 0.3, 0.1, 0.03, 0.01, and 0.003 μg/mL was separately added at 100 μL/tube, with SP2/0 ascite as a negative control. The cells were incubated at 4° C. for 1.5 h, washed with PBS containing 2% FBS, and added with 200 μL of fluorescein isothiocyanate (FITC)-labeled goat anti-mouse IgG secondary antibody (diluted 1:200) for incubation at 4° C. for 1 h in the dark. The cells were washed three times with PBS, and detected by flow cytometry. (FIG. 10)
# [11] = target: T3, Trop2 antigen; assay: Biacore SPR; antibody amine-coupled to CM5 chip, Trop2 antigen as analyte
# Method: Amino of an anti-Trop2 antibody was coupled to a CM5 chip, with pH of 5.0, an antibody concentration of 10 μg/mL, sample injection time of 60 s, and flow rate of 10 μL/min, and a coupling amount of 378.6 RU. […] (FIG. 6)
# [12] = target: T3, Trop2 antigen; assay: indirect ELISA, Trop2 antigen coated at 0.2 µg/ml
# Method: as §1, with “An anti-Trop2 monoclonal antibody was diluted to concentrations of (1, 0.2, 0.04, 0.008, 0.0016, 0.00032, 0.000064, and 0.0000128 μg/mL).” left out, “M⁻¹.” for “M^−1.”
# [13] = target: T3, Trop2 antigen; assay: indirect ELISA, Trop2 antigen coated at 0.4 µg/ml
# Method: as §1, with “An anti-Trop2 monoclonal antibody was diluted to concentrations of (1, 0.2, 0.04, 0.008, 0.0016, 0.00032, 0.000064, and 0.0000128 μg/mL).” left out, “M⁻¹.” for “M^−1.”
# [14] = target: T3, Trop2 antigen; assay: indirect ELISA, Trop2 antigen coated at 0.1 µg/ml
# Method: as §1, with “An anti-Trop2 monoclonal antibody was diluted to concentrations of (1, 0.2, 0.04, 0.008, 0.0016, 0.00032, 0.000064, and 0.0000128 μg/mL).” left out, “M⁻¹.” for “M^−1.”
# [15] = target: T3, Trop2 antigen; assay: indirect ELISA on plates coated with Trop2 antigen at 0.1, 0.2 and 0.4 µg/mL; Ka calculated from the antibody concentrations at half-maximal binding
# Method: as §1, with “An anti-Trop2 monoclonal antibody was diluted to concentrations of (1, 0.2, 0.04, 0.008, 0.0016, 0.00032, 0.000064, and 0.0000128 μg/mL).” left out, “M⁻¹.” for “M^−1.”
molecule,measurement,setting,value
IMMU-132,average time from administration to taking effect,[1],1.9 months
same,clinical effective rate,[1],46%
same,objective remission rate,[1],30%
same,overall survival time,[1],16.6 months
same,progression-free survival time,[1],6 months
same,clinical effective rate,[2],43%
same,median overall survival time,[2],9.5 months
same,median progression-free survival time,[2],5.2 months
same,median remission time,[2],6 months
same,objective remission rate,[2],19%
B1,ka,[3],1.057e+06 M⁻¹ s⁻¹
same,kd,[3],0.0007297 s⁻¹
same,binding to human tumor tissue,[4],highly and specifically bind
same,membrane-binding activity with tumor cell membrane,[5],high membrane-binding activity
same,endocytosis of the antibody,[6],efficiently endocytose
same,targeting of tumor tissues in vivo,"[7]; mice, in vivo imaging, FIG. 11",highly target tumor tissues
same,time remaining in the tumor tissue,"[7]; mouse, in vivo",over 11 days
same,affinity constant Ka,[8],3.9e+10 M⁻¹
same,titer of antibody,[9],8000000
same,affinity activity with tumor cell membrane,[10],high affinity activity
B2,Kd,[11],484 pM
same,koff,[11],0.00073 s⁻¹
same,kon,[11],1.51e+06 M⁻¹ s⁻¹
same,EC50 (read off the curve),[12],~5 ng/mL
same,EC50 (read off the curve),[13],~5 ng/mL
same,EC50 (read off the curve),[14],~5 ng/mL
same,Ka,[15],3.9e+10 M⁻¹
